Laboratory results reported in US20210163594A1 (INVENRA, published 2021).

Experiments:
[1] = molecular target: T1, CD3; assay: BLI (Octet), two-fold serial dilution (200-12.5 nM) of the monovalent B-Body
T1 chain: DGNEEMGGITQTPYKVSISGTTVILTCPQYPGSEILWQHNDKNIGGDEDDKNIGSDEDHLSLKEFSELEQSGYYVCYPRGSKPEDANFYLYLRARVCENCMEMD

[2] = molecular target: CTLA4 (UniProt P16410 36-161, limits assumed); assay: BLI (Octet), antigen immobilized, B-Body as analyte
Excerpt: In each instance, the antigen is immobilized and the B-Body is the analyte.

Chain of CTLA4 (P16410 36-161 limits assumed): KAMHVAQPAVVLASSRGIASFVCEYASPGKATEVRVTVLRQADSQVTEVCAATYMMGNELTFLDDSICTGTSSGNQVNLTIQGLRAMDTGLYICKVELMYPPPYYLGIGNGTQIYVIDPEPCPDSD

B1: non-mutagenized SP34-89 monovalent B-Body (bispecific antibody, V domains shown)
VH: EVQLVESGGGLVQPGGSLRLSCAASGFTFNTYAMNWVRQAPGKGLEWVARIRSKYNNYATYYADSVKGRFSISRDDSKNTAYLQMNSLRAEDTAVYYCVRHGNFGNSYVSWFAYWGQGTLVTV
VL: QAVVTQEPSLTVSPGGTVTLTCRSSTGAVTTSNYANWVQQKPGQAPRGLIGGTNKRAPWTPARFSGSLLGGKAALTITGAQAEDEADYYCALWYSNLWVFGGGTKLTVL
notes: VL and VH were cloned into one arm of a 1×1 BC1 B-Body; Constant parts as in the BC1 scaffold; also called SP34-89 VL-WT/SP34-89 VH-WT
[1]
  Kd: 23 nM
  koff: 0.0071 s⁻¹
  kon: 300000 M⁻¹ s⁻¹

B2: BC1 (bispecific antibody)
chain 1: not shown
chain 2: EVQLVESGGGLVQPGGSLRLSCAASGFTFSDYDIHWVRQAPGKGLEWVGDITPYDGTTNYADSVKGRFTISADTSKNTAYLQMNSLRAEDTAVYYCARLVGEIATGFDYWGQGTLVTVSSASPREPQVYTDPPSRDELTKNQVSLTCLVKGFYPSDIAVEWESNGQPENNYKTTPPVLDSDGSFFLYSKLTVDKSRWQQGNVFSCSVMHEALHNHYTQKSLSLSGEC
chain 3: not shown
chain 4: QVQLVESGGGVVQPGRSLRLDCKASGITFSNSGMHWVRQAPGKGLEWVAVIWYDGSKRYYADSVKGRFTISRDNSKNTLFLQMNSLRAEDTAVYYCATNDDYWGQGTLVTVSSASTKGPSVFPLAPSSKSTSGGTAALGCLVKDYFPEPVTVSWNSGALTSGVHTFPAVLQSSGLYSLSSVVTVPSSSLGTQTYICNVNHKPSNTKVDKKVEPPKSC
notes: also called bivalent bispecific B-Body BC1; bivalent 1×1 construct BC1
[2]
  binding result: no binding
